Experimental data taken from patent US20240301038A1.

Target: SARS-CoV-2 Spike Receptor Binding Domain (RBD) (Sino Biological) (SARS-CoV-2), P0DTC2
Settings: remark: other sources report otherwise

B1: AB-009620 (antibody, V domains shown)
VH: QITLKESGPTLVKPTQTLTLTCTFSGFSLSTSGVGVGWIRQPPGKALEWLALIYWDDDKRYSPSLKSRLTITKDTSKNQVVLTMTNMDPVDTATYYCAHHEVATVFDYWGQGTLVTVSS
VL: QSALTQPASVSGSPGQSITISCTGTSSDVGAYNYVSWYQQHPGKAPKLMIYEVSNRPSGVSNRFSGSKSGNTASLTISGLQAEDEADYYCSSYTSSSTVFGGGTKLTVL
  Kd: 5.99 nM
